± gives the uncertainty stated by the source.
Assay: self-splicing fitness, log relative to wild type (ln ratio); higher = more splicing; Tetrahymena group I intron in knt gene, E. coli kanamycin selection, DiMSum; sequences stand for … in CUCUCU…GGAGGGAAAAGUUAUCAGGCAUGCACCUGGUAGCUAGUCUUUAAACCAAUAGAUUGCAUCGGUUUAAAAGGCAAGACCGUCAAAUUGCGGGAAAGGGGUCAACAGCCGUUCAGUACCAAGUCUCAGGGGAAACUUUGAGAUGGCCUUGCAAAGGGUAUGGUAAUAAGCUGACGGACAUGGUCCUAACCACGCAGCCAAGUCCUAAGUCAACAGAUCUUCUGUUGAUAUGGAUGCAGUUCACAGACUAAAUGUCGGUCGGGGAAGAUGUAUUCUUCUCAUAAGAUAUAGUCGGACCUCUCCUUAAUGGGAGCUAGCGGAUGAAGUGAUGCAACACUGGAGCCGCUGGGAACUAAUUUGUAUGCGAAAGUAUAUUGAUUAGUUUUGGAGUACUCGUGGUCG
Method in brief: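 Colonies from six replicate transformations of E. coli BL21(DE3) were pooled and amplicon-sequenced on an Illumina HiSeq 2500. The library placed an intron with all eight P1ex-region nucleotides randomised inside the knt kanamycin-resistance gene on pET-22b(+), and cells grew overnight at 37°C or 30°C on LB agar with or without 25 μg/mL kanamycin (plus 100 μg/mL carbenicillin, 50 μM IPTG, 0.2% rhamnose). Fitness is the DiMSum error-weighted combination of wild-type-normalised replicate fold changes, kanamycin versus none.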

Sequence	self-splicing fitness (ln) (30 °C)	self-splicing fitness (ln) (37 °C)
CUAUAGCAAUAUUACGGGAA	-2.55 ± 0.32	-2.26 ± 0.31
CUAUAGCAAUAUUACGGGCA	-3.19 ± 0.26	-1.89 ± 0.18
CUAUAGCAAUAUUACGGGUU	-3.13 ± 0.23	-1.38 ± 0.19
CUAUAGCAAUAUUACGGUAC	-3.68 ± 0.28	-1.51 ± 0.25
CUAUAGCAAUAUUACGGUCU	-4.51 ± 0.36	-2.14 ± 0.29
CUAUAGCAAUAUUACGUAAA	-3.63 ± 0.24	–
CUAUAGCAAUAUUACGUAUG	-1.52 ± 0.085	-0.647 ± 0.099
CUAUAGCAAUAUUACGUCGA	-2.18 ± 0.22	-2.6 ± 0.38
CUAUAGCAAUAUUACGUCGU	–	-2.24 ± 0.34
CUAUAGCAAUAUUACGUGGC	-2.86 ± 0.24	-1.8 ± 0.28
CUAUAGCAAUAUUACGUUGA	-3.67 ± 0.32	-3.42 ± 0.35
CUAUAGCAAUAUUACGUUGC	-2.61 ± 0.32	-2.37 ± 0.32
CUCAAGCAAUAUUACGAAAG	-2.12 ± 0.11	-0.747 ± 0.13
CUCAAGCAAUAUUACGACAA	-2.86 ± 0.23	-1.89 ± 0.21
CUCAAGCAAUAUUACGACGC	-1.75 ± 0.24	-2.18 ± 0.42
CUCAAGCAAUAUUACGACGG	-0.942 ± 0.1	-1.05 ± 0.13
CUCAAGCAAUAUUACGAUAA	-3.78 ± 0.16	-1.93 ± 0.12
CUCAAGCAAUAUUACGAUGC	-3.9 ± 0.15	-2.95 ± 0.17
CUCAAGCAAUAUUACGAUGU	-2.6 ± 0.11	-1.21 ± 0.13
CUCAAGCAAUAUUACGCAAG	–	-0.876 ± 0.27
CUCAAGCAAUAUUACGCCAG	-3.03 ± 0.28	-0.675 ± 0.29
CUCAAGCAAUAUUACGCUAA	-3.13 ± 0.2	-2.96 ± 0.22
CUCAAGCAAUAUUACGCUCG	–	-0.979 ± 0.33
CUCAAGCAAUAUUACGGUAU	-3.61 ± 0.17	-2.08 ± 0.17
CUCAAGCAAUAUUACGGUGC	-4.1 ± 0.31	-3.19 ± 0.27

Sequence	self-splicing fitness (ln) (30 °C)	self-splicing fitness (ln) (37 °C)
CUCAAGCAAUAUUACGGUGU	-3.3 ± 0.12	-1.31 ± 0.13
CUCAAGCAAUAUUACGGUUA	-2.78 ± 0.2	-2.81 ± 0.2
CUCAAGCAAUAUUACGUACC	-4.45 ± 0.34	-2.04 ± 0.23
CUCAAGCAAUAUUACGUCCG	-2.08 ± 0.12	-1.38 ± 0.13
CUCAAGCAAUAUUACGUGCC	-2.96 ± 0.11	-2.29 ± 0.17
CUCAAGCAAUAUUACGUGGC	-4.37 ± 0.22	-2.24 ± 0.14
CUCAAGCAAUAUUACGUGUC	-3.37 ± 0.11	-1.65 ± 0.1
CUCAAGCAAUAUUACGUGUG	-2.73 ± 0.074	-1.42 ± 0.072
CUCAAGCAAUAUUACGUUCA	-2.07 ± 0.15	-1.46 ± 0.14
CUCAAGCAAUAUUACGUUGA	-3.13 ± 0.21	-2.48 ± 0.2
CUCCAGCAAUAUUACGACGU	-3.83 ± 0.21	-2.01 ± 0.21
CUCCAGCAAUAUUACGAUAU	-2.46 ± 0.19	-2.95 ± 0.47
CUCCAGCAAUAUUACGAUGU	-3.28 ± 0.17	-2.9 ± 0.21
CUCCAGCAAUAUUACGCAAA	-3.21 ± 0.21	-2.68 ± 0.26
CUCCAGCAAUAUUACGCAUA	–	-2.21 ± 0.29
CUCCAGCAAUAUUACGCAUG	-2.12 ± 0.08	-1.06 ± 0.074
CUCCAGCAAUAUUACGCCGA	-2.27 ± 0.42	–
CUCCAGCAAUAUUACGGAAA	-2.25 ± 0.13	-1.55 ± 0.12
CUCCAGCAAUAUUACGGAAC	-4.55 ± 0.46	-2.33 ± 0.21
CUCCAGCAAUAUUACGGAUG	-2.46 ± 0.13	-1.38 ± 0.14
CUCCAGCAAUAUUACGGCAG	-4.58 ± 0.21	-1.75 ± 0.15
CUCCAGCAAUAUUACGGCGC	-3.37 ± 0.18	-2.81 ± 0.27
CUCCAGCAAUAUUACGGGAA	-1.92 ± 0.086	-0.479 ± 0.093
CUCCAGCAAUAUUACGGGCA	–	-2.52 ± 0.27
CUCCAGCAAUAUUACGGUAC	-2.28 ± 0.12	-1.86 ± 0.16

Source: the supplement of paper PMC7877785
